Data from patent US20200181247A1.

Molecular target: commercially-prepared stable A-beta42 Oligomers (SynAging SAS) (human)
Assay: SPR; antibody covalently immobilized, stable A-beta42 oligomers (1 microM) injected

Sequence of commercially-prepared stable A-beta42 Oligomers (SynAging SAS) (human) (peptide, as listed by the source): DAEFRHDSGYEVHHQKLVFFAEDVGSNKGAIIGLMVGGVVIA

binding response units (BRUs), mean: 2.5 BRU
Substance: negative control IgG1 (antibody)
